Reference: patent US20190203227A1 (WILLIAM MARSH RICE UNIVERSITY, published 2019)

B1: PhyB917-His6 (other)
chain: MGASGVSGVGGSGGGRGGGRGGEEEPSSSHTPNNRRGGEQAQSSGTKSLRPRSNTESMSKAIQQYTVDARLHAVFEQSGESGKSFDYSQSLKTTTYGSSVPEQQITAYLSRIQRGGYIQPFGCMIAVDESSFRIIGYSENAREMLGIMPQSVPTLEKPEILAMGTDVRSLFTSSSSILLERAFVAREITLLNPVWIHSKNTGKPFYAILHRIDVGVVIDLEPARTEDPALSIAGAVQSQKLAVRAISQLQALPGGDIKLLCDTVVESVRDLTGYDRVMVYKFHEDEHGEVVAESKRDDLEPYIGLHYPATDIPQASRFLFKQNRVRMIVDCNATPVLVVQDDRLTQSMCLVGSTLRAPHGCHSQYMANMGSIASLAMAVIINGNEDDGSNVASGRSSMRLWGLVVCHHTSSRCIPFPLRYACEFLMQAFGLQLNMELQLALQMSEKRVLRTQTLLCDMLLRDSPAGIVTQSPSIMDLVKCDGAAFLYHGKYYPLGVAPSEVQIKDVVEWLLANHADSTGLSTDSLGDAGYPGAAALGDAVCGMAVAYITKRDFLFWFRSHTAKEIKWGGAKHHPEDKDDGQRMHPRSSFQAFLEVVKSRSQPWETAEMDAIHSLQLILRDSFKESEAAMNSKVVDGVVQPCRDMAGEQGIDELGAVAREMVRLIETATVPIFAVDAGGCINGWNAKIAELTGLSVEEAMGKSLVSDLIYKENEATVNKLLSRALRGDEEKNVEVKLKTFSPELQGKAVFVVVNACSSKDYLNNIVGVCFVGQDVTSQKIVMDKFINIQGDYKAIVHSPNPLIPPIFAADENTCCLEWNMAMEKLTGWSRSEVIGKMIVGEVFGSCCMLKGPDALTKFMIVLHNAIGGQDTDKFPFPFFDRNGKFVQALLTANKRVSLEGKVIGAFCFLQIPSPELQQALAVGGSHHHHHH
modifications: phycocyanobilin (PCB) chromophore bound after incubation with 5 uM PCB (residue not stated)
notes: Light-switchable phytochrome B fragment, immobilised on a Ni2+ column
B2: PhyB651-His6 (other)
chain: MVSGVGGSGGGRGGGRGGEEEPSSSHTPNNRRGGEQAQSSGTKSLRPRSNTESMSKAIQQYTVDARLHAVFEQSGESGKSFDYSQSLKTTTYGSSVPEQQITAYLSRIQRGGYIQPFGCMIAVDESSFRIIGYSENAREMLGIMPQSVPTLEKPEILAMGTDVRSLFTSSSSILLERAFVAREITLLNPVWIHSKNTGKPFYAILHRIDVGVVIDLEPARTEDPALSIAGAVQSQKLAVRAISQLQALPGGDIKLLCDTVVESVRDLTGYDRVMVYKFHEDEHGEVVAESKRDDLEPYIGLHYPATDIPQASRFLFKQNRVRMIVDCNATPVLVVQDDRLTQSMCLVGSTLRAPHGCHSQYMANMGSIASLAMAVIINGNEDDGSNVASGRSSMRLWGLVVCHHTSSRCIPFPLRYACEFLMQAFGLQLNMELQLALQMSEKRVLRTQTLLCDMLLRDSPAGIVTQSPSIMDLVKCDGAAFLYHGKYYPLGVAPSEVQIKDVVEWLLANHADSTGLSTDSLGDAGYPGAAALGDAVCGMAVAYITKRDFLFWFRSHTAKEIKWGGAKHHPEDKDDGQRMHPRSSFQAFLEVVKSRSQPWETAEMDAIHSLQLILRDSFKESEAAMNSKVVDGVVQPCRDMAGEQGIDELGAHHHHHH
modifications: phycocyanobilin (PCB) chromophore bound after incubation with 5 uM PCB (residue not stated)

Target: T1, wild-type recombinant adeno-associated virus serotype 2 (adeno-associated virus serotype 2, UniProt P03135 1-735; P03135 139-735; P03135 203-735)
T1 construct: Assembled virus capsid; Control virus without PIF6; also called wtAAV2; wtAAV
Test: Ni2+ column capture with immobilised PhyB, qPCR of viral genomes, far-red (730 nm) light

Binder	binding result
B1	no binding
B2	no binding
